The record followed here is publication doi:10.1101/2023.06.15.545204.

This assay has as its target BST4-mScarlet-I (Chlamydomonas reinhardtii). Description: Slimfield microscopy with single particle tracking and molecular counting.

BST4-mScarlet-I (natural protein) came in with an interval between stoichiometry peaks of 5 and a stoichiometry N of 5.
